Publication PMC2953525, “Subtle Alterations in PCNA-Partner Interactions Severely Impair DNA Replication and Repair” (PLoS Biology, 2010)

Key:
Rad30 = test: Yeast two hybrid (Y2H) analysis of PCNA-partner interaction; format: binding; details: for Binding of PCNA Mutants to Target Partners: Rad30 (Y2H): YRG2 strain, growth on selective agar plates lacking histidine, growth similar to WT PCNA denoted as 1
How it was run: (§1)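 PCNA WT or mutants as bait against each partner as prey, cotransformed into yeast YRG2; interaction scored as growth on SC-Leu-Trp-His from 10-fold serial dilutions, 30°C, 3 d. Quantitative: generation time τ from OD600 growth curves in liquid SC-Leu-Trp-His, mean of ≥3 experiments.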

Pol32 = test: as above; format: binding; details: for Binding of PCNA Mutants to Target Partners: Pol32 (Y2H): YRG2 strain, growth on selective agar plates lacking histidine, growth similar to WT PCNA denoted as 1
How it was run: as §1

Ung1 = test: as above; format: binding; details: YRG2 strain, growth on selective agar plates lacking histidine; growth similar to WT PCNA denoted as 1
How it was run: as §1

Msh6 = test: as above; format: binding; details: YRG2 strain, growth on selective agar plates lacking histidine; growth similar to WT PCNA denoted as 1
How it was run: as §1

Rad27 = test: as above; format: binding; details: for Binding of PCNA Mutants to Target Partners: Rad27, fold increase or decrease (quantitative Y2H): footnote c: generation time in liquid selective media lacking histidine relative to cells expressing WT PCNA, average of at least 3 independent experiments
How it was run: as §1

Eco1 = test: as above; format: binding; set-up: key: ++: major increase in growth; +: moderate increase in growth; similar growth as the WT PCNA-expressing cells; -: minor decrease in growth; --: moderate decrease in growth; ---: major decrease in growth; details: spotting onto selective agar plates; PCNA fused to AD, partner to BD
Msh3 = test: as above; format: binding; set-up: key: ++: major increase in growth; +: moderate increase in growth; similar growth as the WT PCNA-expressing cells; -: minor decrease in growth; --: moderate decrease in growth; ---: major decrease in growth; details: spotting onto selective agar plates; PCNA fused to AD, partner to BD
Rrm3 = test: as above; format: binding; set-up: key: ++: major increase in growth; +: moderate increase in growth; similar growth as the WT PCNA-expressing cells; -: minor decrease in growth; --: moderate decrease in growth; ---: major decrease in growth; details: spotting onto selective agar plates; PCNA fused to AD, partner to BD
yeast strains = test: Growth sensitivity of PCNA mutant strains to MMS and HU; format: cell-based; details: for effect of overexpression of Rad27, Rad30, Pol32, and Msh6 on growth sensitivity to DNA damaging agents: Figure S9, GAL1/10 inducible GST-tagged partners
Excerpt: Next, we examined the sensitivity of strains containing single deletions of each of the five different partners on a WT PCNA background. […] We first examined whether the rad27 deletion can suppress the lethality of a strain containing the pol30-Rad27L1 or pol30-Rad27L2 mutants (Figure 6A). […] In addition, we examined whether rad30 deletion, ung1 deletion, and msh6 deletion can suppress the phenotypes of the pol30 mutants with increased affinity to Rad30, Ung1, and Msh6, respectively (Figure 6B–D). […] However, since the suppression of the strain phenotypes was not complete, additional factors, such as minor effects of the mutations on other PCNA-partner interactions, may play a partial role in the sensitivity phenotype of the examined pol30 mutants. […] We also examined whether overexpression of different partners can suppress the growth sensitivity of the pol30 mutants, however no suppression was observed (Figure S9).
Novel haploids containing PCNA mutants were generated using the plasmid shuffling method. Briefly, a pol30::KanMX magic marker heterozygote diploid strain BY4743 (Open Biosystem) was transformed with plasmid pRS316-POL30. Following dissection of the diploid, a haploid containing the CAN+ gene and plasmid pRS316-POL30 as a sole source of PCNA was generated. This host strain was transformed with selected pRS315-pol30 mutants, plated on SC-Ura-Leu plates, followed by replica plating to SC-Leu+5FOA plates. Haploids, containing PCNA mutants as a sole source, were further verified by plating on either SC-Leu or SC-Ura plates. For testing selected PCNA mutants, a haploid containing rad27::HYG, rad30::HYG, pol32::HYG, msh6::HYG, or ung1::HYG were generated using plasmid pAG32 by conventional genetic approaches. Growth of the PCNA mutant strains in the presence of 120 mM HU (Toronto Research Chemicals) or 0.02% MMS (Sigma) was performed as described. To examine the effects of partner overexpression on pol30 mutant strains, these strains were transformed with various plasmids containing GST-tagged PCNA partner encoding genes under the control of a GAL1/10 inducible promoter, as previously described. Overnight cultures were plated in serial dilutions on SC-Ura containing either glucose or galactose with or without DNA-damaging agents, as described above.

[1] = footnote c: generation time in liquid selective media lacking histidine relative to cells expressing WT PCNA, average of at least 3 independent experiments

Row | Molecule | Binding of PCNA Mutants to Target Partners: Rad30, fold increase or decrease (quantitative Y2H) (Rad30; [1]) [fold] | Binding of PCNA Mutants to Target Partners: Pol32 (Y2H) (Pol32) | Binding of PCNA Mutants to Target Partners: Ung1 (Y2H) (Ung1) | Binding of PCNA Mutants to Target Partners: Msh6 (Y2H) (Msh6) | Binding of PCNA Mutants to Target Partners: Rad27, fold increase or decrease (quantitative Y2H) (Rad27) | Y2H growth relative to WT PCNA-expressing strain: Eco1 (Eco1) | Y2H growth relative to WT PCNA-expressing strain: Msh3 (Msh3) | Y2H growth relative to WT PCNA-expressing strain: Rrm3 (Rrm3) | effect of rad30 deletion on strain growth sensitivity phenotype (yeast strains; Figure 6B) | Binding of PCNA Mutants to Target Partners: Rad30 (Y2H) (Rad30) | effect of rad27 deletion on growth sensitivity of the mutant strain (yeast strains; Figure S8, parent vs rad27-deleted strains) | effect of overexpression of Rad27, Rad30, Pol32, and Msh6 on growth sensitivity to DNA damaging agents (yeast strains) | Binding of PCNA Mutants to Target Partners: Pol32, fold increase or decrease (quantitative Y2H) (Pol32; [1]) | Binding of PCNA Mutants to Target Partners: Rad27 (Y2H) (Rad27; YRG2 strain, growth on selective agar plates lacking histidine, growth similar to WT PCNA denoted as 1)
1 | pol30-Rad30E9: PCNA mutant evolved for Rad30, IDCL sequence DNDWDFLKIDEL (protein, left off: Gal4 activation domain, end not stated, kept) MLEAKFEEASLFKRIIDGFKDCVQLVNFQCKEDGIIAQAVDDSRVLLVSLEIGVEAFQEYRCDHPVTLGMDLTSLSKILRCGNNTDTLTLIADNTPDSIILLFEDTKKDRIAEYSLKLMDNDWDFLKIDELQYDSTLSLPSSEFSKIVRDLSQLSDSINIMITKETIKFVADGDIGSGSVIIKPFVDMEHPETSIKLEMDQPVDLTFGAKYLLDIIKGSSLSDRVGIRLSSEAPALFQFDLKSGFLQFFLAPKFNDEE | 1.6 | 1 | 1 | 1 | 0.5 ^c fold | WT | WT | WT | suppression |  |  |  |  | 
2 | pol30-Rad27E6: PCNA mutant evolved for Rad27, IDCL sequence DGDYDILKIREL (protein, left off: Gal4 activation domain, end not stated, kept) MLEAKFEEASLFKRIIDGFKDCVQLVNFQCKEDGIIAQAVDDSRVLLVSLEIGVEAFQEYRCDHPVTLGMDLTSLSKILRCGNNTDTLTLIADNTPDSIILLFEDTKKDRIAEYSLKLMDGDYDILKIRELQYDSTLSLPSSEFSKIVRDLSQLSDSINIMITKETIKFVADGDIGSGSVIIKPFVDMEHPETSIKLEMDQPVDLTFGAKYLLDIIKGSSLSDRVGIRLSSEAPALFQFDLKSGFLQFFLAPKFNDEE |  | 1 | 1 | 1 | 1.5 ^c fold | WT | WT | WT |  | 1 | only weak effect | did not reduce the growth sensitivity |  | 
3 | pol30-Pol32E5: PCNA mutant evolved for Pol32, IDCL sequence DADNDFLKISEL (protein, left off: Gal4 activation domain, end not stated, kept) MLEAKFEEASLFKRIIDGFKDCVQLVNFQCKEDGIIAQAVDDSRVLLVSLEIGVEAFQEYRCDHPVTLGMDLTSLSKILRCGNNTDTLTLIADNTPDSIILLFEDTKKDRIAEYSLKLMDADNDFLKISELQYDSTLSLPSSEFSKIVRDLSQLSDSINIMITKETIKFVADGDIGSGSVIIKPFVDMEHPETSIKLEMDQPVDLTFGAKYLLDIIKGSSLSDRVGIRLSSEAPALFQFDLKSGFLQFFLAPKFNDEE |  |  | 1 | 1 |  | WT | WT | WT |  | 1 |  | did not reduce the growth sensitivity | 1.5 ^c fold | 1
